In IntAct's records for PubMed 35512704:

B1: Speckle-type POZ protein (Homo sapiens), O43791 (parent)
chain: MSRVPSPPPPAEMSSGPVAESWCYTQIKVVKFSYMWTINNFSFCREEMGEVIKSSTFSSGANDKLKWCLRVNPKGLDEESKDYLSLYLLLVSCPKSEVRAKFKFSILNAKGEETKAMESQRAYRFVQGKDWGFKKFIRRDFLLDEANGLLPDDKLTLFCEVSVVQDSVNISGQNTMNMVKVPECRLADELGGLWENSRFTDCCLCVAGQEFQAHKAILAARSPVFSAMFEHEMEESKKNRVEINDVEPEVFKEMMCFIYTGKAPNLDKMADDLLAAADKYALERLKVMCEDALCSNLSVENAAEILILADLHSADQLKTQAVDFINYHASDVLETSGWKSMVVSHPHLVAEAYRSLASAQCPFLGPPRKRLKQS

Variants of: B1
Settings: with brd4_human BRD4, O60885

Variant | effect of a mutation on the interaction
F133V | disrupting interaction strength

Variants of: B1
Settings: with ncoa3_human NCOA3, Q9Y6Q9

Variant | effect of a mutation on the interaction
F133V | disrupting interaction strength

Variants of: B1
Settings: with jun_human JUN

Variant | effect of a mutation on the interaction
F133V | with no effect

Variants of: B1
Settings: with akt1_human AKT1, P31749

Variant | effect of a mutation on the interaction
F133V | with no effect

Variants of: B1
Settings: with alk_human ALK

Variant | effect of a mutation on the interaction
F133V | with no effect

Variants of: B1
Settings: with aph1a_human APH1A

Variant | effect of a mutation on the interaction
F133V | with no effect

Variants of: B1
Settings: with arnt_human ARNT

Variant | effect of a mutation on the interaction
F133V | with no effect

Variants of: B1
Settings: with asxl2_human ASXL2, Q76L83

Variant | effect of a mutation on the interaction
F133V | with no effect

Variants of: B1
Settings: with bakor_human ATG14, Q6ZNE5

Variant | effect of a mutation on the interaction
F133V | with no effect

Variants of: B1
Settings: with atm_human ATM

Variant | effect of a mutation on the interaction
F133V | with no effect

Variants of: B1
Settings: with atpb_human ATP5F1B

Variant | effect of a mutation on the interaction
F133V | with no effect

Variants of: B1
Settings: with aurkb_human AURKB

Variant | effect of a mutation on the interaction
F133V | with no effect

Variants of: B1
Settings: with axin2_human AXIN2, Q9Y2T1

Variant | effect of a mutation on the interaction
F133V | with no effect

Variants of: B1
Settings: with ufo_human AXL

Variant | effect of a mutation on the interaction
F133V | with no effect

Variants of: B1
Settings: with za2g_human AZGP1, P25311

Variant | effect of a mutation on the interaction
F133V | with no effect

Variants of: B1
Settings: with b2mg_human B2M

Variant | effect of a mutation on the interaction
F133V | with no effect

Variants of: B1
Settings: with bap1_human BAP1, Q92560

Variant | effect of a mutation on the interaction
F133V | with no effect

Variants of: B1
Settings: with bcor_human BCOR

Variant | effect of a mutation on the interaction
F133V | with no effect

Variants of: B1
Settings: with birc2_human BIRC2, Q13490

Variant | effect of a mutation on the interaction
F133V | with no effect

Variants of: B1
Settings: with brd4_human BRD4, O60885
Remark: another data set of the same source

Variant | effect of a mutation on the interaction
F133V | with no effect

Variants of: B1
Settings: with baba2_human BABAM2, Q9NXR7

Variant | effect of a mutation on the interaction
F133V | with no effect

Variants of: B1
Settings: with btg1_human BTG1, P62324

Variant | effect of a mutation on the interaction
F133V | with no effect

Variants of: B1
Settings: with btk_human BTK

Variant | effect of a mutation on the interaction
F133V | with no effect

Variants of: B1
Settings: with ccnd1_human CCND1, P24385

Variant | effect of a mutation on the interaction
F133V | with no effect

Variants of: B1
Settings: with ccnd2_human CCND2, P30279

Variant | effect of a mutation on the interaction
F133V | with no effect

Variants of: B1
Settings: with ccnd3_human CCND3, P30281

Variant | effect of a mutation on the interaction
F133V | with no effect

Variants of: B1
Settings: with cd44_human CD44, P16070

Variant | effect of a mutation on the interaction
F133V | with no effect

Variants of: B1
Settings: with cd79b_human CD79B

Variant | effect of a mutation on the interaction
F133V | with no effect

Variants of: B1
Settings: with cdc73_human CDC73, Q6P1J9

Variant | effect of a mutation on the interaction
F133V | with no effect

Variants of: B1
Settings: with cdk4_human CDK4, P11802

Variant | effect of a mutation on the interaction
F133V | with no effect

Variants of: B1
Settings: with cdk6_human CDK6, Q00534

Variant | effect of a mutation on the interaction
F133V | with no effect

Variants of: B1
Settings: with cdn2c_human CDKN2C

Variant | effect of a mutation on the interaction
F133V | with no effect

Variants of: B1
Settings: with chd1l_human CHD1L

Variant | effect of a mutation on the interaction
F133V | with no effect

Variants of: B1
Settings: with chd2_human CHD2, O14647

Variant | effect of a mutation on the interaction
F133V | with no effect

Variants of: B1
Settings: with ch3l1_human CHI3L1, P36222

Variant | effect of a mutation on the interaction
F133V | with no effect

Variants of: B1
Settings: with cul3_human CUL3, Q13618

Variant | effect of a mutation on the interaction
F133V | with no effect

Variants of: B1
Settings: with cul4b_human CUL4B

Variant | effect of a mutation on the interaction
F133V | with no effect

Variants of: B1
Settings: with daxx_human DAXX

Variant | effect of a mutation on the interaction
F133V | with no effect

Variants of: B1
Settings: with ddx5_human DDX5, P17844

Variant | effect of a mutation on the interaction
F133V | with no effect

Variants of: B1
Settings: with dll3_human DLL3, Q9NYJ7

Variant | effect of a mutation on the interaction
F133V | with no effect

Variants of: B1
Settings: with duox2_human DUOX2, Q9NRD8

Variant | effect of a mutation on the interaction
F133V | with no effect

Variants of: B1
Settings: with e2f2_human E2F2, Q14209

Variant | effect of a mutation on the interaction
F133V | with no effect

Variants of: B1
Settings: with e2f3_human E2F3, O00716

Variant | effect of a mutation on the interaction
F133V | with no effect

Variants of: B1
Settings: with e2f5_human E2F5, Q15329

Variant | effect of a mutation on the interaction
F133V | with no effect

Variants of: B1
Settings: with e2f6_human E2F6, O75461

Variant | effect of a mutation on the interaction
F133V | with no effect

Variants of: B1
Settings: with e2f8_human E2F8, A0AVK6

Variant | effect of a mutation on the interaction
F133V | with no effect

Variants of: B1
Settings: with if4e_human EIF4E

Variant | effect of a mutation on the interaction
F133V | with no effect

Variants of: B1
Settings: with epha7_human EPHA7, Q15375

Variant | effect of a mutation on the interaction
F133V | with no effect

Variants of: B1
Settings: with ephb1_human EPHB1, P54762

Variant | effect of a mutation on the interaction
F133V | with no effect

Variants of: B1
Settings: with erbb3_human ERBB3, P21860

Variant | effect of a mutation on the interaction
F133V | with no effect

Variants of: B1
Settings: with erbb4_human ERBB4, Q15303

Variant | effect of a mutation on the interaction
F133V | with no effect

Variants of: B1
Settings: with esr1_human ESR1, P03372

Variant | effect of a mutation on the interaction
F133V | with no effect

Variants of: B1
Settings: with etv1_human ETV1, P50549

Variant | effect of a mutation on the interaction
F133V | with no effect

Variants of: B1
Settings: with ezh1_human EZH1, Q92800

Variant | effect of a mutation on the interaction
F133V | with no effect

Variants of: B1
Settings: with ezh2_human EZH2, Q15910

Variant | effect of a mutation on the interaction
F133V | with no effect

Variants of: B1
Settings: with facd2_human FANCD2, Q9BXW9

Variant | effect of a mutation on the interaction
F133V | with no effect

Variants of: B1
Settings: with fgf19_human FGF19, O95750

Variant | effect of a mutation on the interaction
F133V | with no effect

Variants of: B1
Settings: with fgfp1_human FGFBP1, Q14512

Variant | effect of a mutation on the interaction
F133V | with no effect

Variants of: B1
Settings: with fgfr4_human FGFR4, P22455

Variant | effect of a mutation on the interaction
F133V | with no effect

Variants of: B1
Settings: with fumh_human FH

Variant | effect of a mutation on the interaction
F133V | with no effect

Variants of: B1
Settings: with gbra6_human GABRA6, Q16445

Variant | effect of a mutation on the interaction
F133V | with no effect

Variants of: B1
Settings: with gata1_human GATA1, P15976

Variant | effect of a mutation on the interaction
F133V | with no effect

Variants of: B1
Settings: with p66b_human GATAD2B

Variant | effect of a mutation on the interaction
F133V | with no effect

Variants of: B1
Settings: with gna11_human GNA11, P29992

Variant | effect of a mutation on the interaction
F133V | with no effect

Variants of: B1
Settings: with gna13_human GNA13, Q14344

Variant | effect of a mutation on the interaction
F133V | with no effect

Variants of: B1
Settings: with gnaq_human GNAQ

Variant | effect of a mutation on the interaction
F133V | with no effect

Variants of: B1
Settings: with grm1_human GRM1, Q13255

Variant | effect of a mutation on the interaction
F133V | with no effect

Variants of: B1
Settings: with grm3_human GRM3, Q14832

Variant | effect of a mutation on the interaction
F133V | with no effect

Variants of: B1
Settings: with gtpb4_human GTPBP4, Q9BZE4

Variant | effect of a mutation on the interaction
F133V | with no effect

Variants of: B1
Settings: with h33_human H3-3A

Variant | effect of a mutation on the interaction
F133V | with no effect

Variants of: B1
Settings: with hdac1_human HDAC1, Q13547

Variant | effect of a mutation on the interaction
F133V | with no effect

Variants of: B1
Settings: with hdac3_human HDAC3, O15379

Variant | effect of a mutation on the interaction
F133V | with no effect

Variants of: B1
Settings: with hgf_human HGF

Variant | effect of a mutation on the interaction
F133V | with no effect

Variants of: B1
Settings: with h31_human H3C1, P68431

Variant | effect of a mutation on the interaction
F133V | with no effect

Variants of: B1
Settings: with hlab_human HLA-B

Variant | effect of a mutation on the interaction
F133V | with no effect
